B1: 072516-B05 (protein)
chain: MALPVTALLLPLALLLHAARPEIVMTQSPATLSLSPGERATLSCRASQDISKYLNWYQQKPGQAPRLLIYHTSRLHSGIPARFSGSGSGTDYTLTISSLQPEDFAVYFCQQGNTLPYTFGQGTKLEIKLEGKPIPNPLLGLDSTGSGEDLKNVFPPEVAVFEPSKAEIAHTQKATLVCLATGFYPDHVELSWWVNGKEVHSGVCTDPQPLKEQPALNDSRYCLSSRLRVSATFWQNPRNHFRCQVQFYGLSENDEWTQDRAKPVTQIVSAEAWGRADCGITSASYHQGVLSATILYEILLGKATLYAVLVSALVLMAMVKRKDSRGRAKRSGSGATNFSLLKQAGDVEENPGPTSMDWIWRILFLVGAATGAHSFEQVQLQESGPGLVKPSETLSLTCTVSGVSLPDYGVSWIRQPPGKGLEWIGVIWGSETTYYNSSLKSRVTISKDNSKNQVSLKLSSVTAADTAVYYCAKHYYYGGSYAMDYWGQGTLVTVSSTREQKLISEEDGSGIQNPDPAVYQLRDSKSSDKSVCLFTDFDSQTNVSQSKDSDVYITDKCVLDMRSMDFKSNSAVAWSNKSDFACANAFNNSIIPEDTFFPSSDVPCDVKLVEKSFETDTNLNFQNLSVIGFRILLLKVAGFNLLMTLRLWSSRAKRSGSGVKQTLNFDLLKLAGDVESNPGPSRGHMTEYKPTVRLATRDDVPRAVRTLAAAFADYPATRHTVDPDRHIERVTELQELFLTRVGLDIGKVWVADDGAAVAVWTTPESVEAGAVFAEIGPRMAELSGSRLAAQQQMEGLLAPHRPKEPAWFLATVGVSPDHQGKGLGSAVVLPGVEAAERAGVPAFLETSAPRNLPFYERLGFTVTADVEVPEGPRTWCMTRKPGA
modifications: Synthetic Immune Receptor (SIR)
B2: 012617-N02 (protein)
chain: MALPVTALLLPLALLLHAARPLEGKPIPNPLLGLDSTGSGEDLKNVFPPEVAVFEPSKAEIAHTQKATLVCLATGFYPDHVELSWWVNGKEVHSGVCTDPQPLKEQPALNDSRYCLSSRLRVSATFWQNPRNHFRCQVQFYGLSENDEWTQDRAKPVTQIVSAEAWGRADCGITSASYHQGVLSATILYEILLGKATLYAVLVSALVLMAMVKRKDSRGRAKRSGSGATNFSLLKQAGDVEENPGPTSMALPVTALLLPLALLLHAARPQSVVTQPPSVSAAPGQKVTISCSGSSSNIGNNYVSWYQQLPGTAPKLLIYDNNKRPSGIPDRFSGSKSGTSATLGITGLQTGDEADYYCGTWDGSLYTMLFGGGTKLTVLGGGGSGGGGSGGGGSEVQLVESGGGLVKPGGSLRLSCAASGFTFSNAWMSWVRQAPGKGLEWVGFIRSKAYGGTTEYAASVKGRFTISRDDSKSIAYLQMNNLKTEDTAVYYCARDGLYSSSWYDSDYWGQGTLVTVSSTREQKLISEEDGSGIQNPDPAVYQLRDSKSSDKSVCLFTDFDSQTNVSQSKDSDVYITDKCVLDMRSMDFKSNSAVAWSNKSDFACANAFNNSIIPEDTFFPSSDVPCDVKLVEKSFETDTNLNFQNLSVIGFRILLLKVAGFNLLMTLRLWSSRAKRSGSGVKQTLNFDLLKLAGDVESNPGPSRGHMTEYKPTVRLATRDDVPRAVRTLAAAFADYPATRHTVDPDRHIERVTELQELFLTRVGLDIGKVWVADDGAAVAVWTTPESVEAGAVFAEIGPRMAELSGSRLAAQQQMEGLLAPHRPKEPAWFLATVGVSPDHQGKGLGSAVVLPGVEAAERAGVPAFLETSAPRNLPFYERLGFTVTADVEVPEGPRTWCMTRKPGA

System: target antigen-expressing cell line
Experiment: Jurkat NFAT-GFP assay, coculture with target cell lines expressing the respective target antigen (summary Table 10A)
Assay type: cell-based, human
Set-up: key: The signs +/−, +, 2+ etc. after the name of the cell lines indicate the relative degree of positivity on the Jurkat-NFAT-GFP assay as measured by the % GFP positive cells; +: relative degree of positivity on the Jurkat-NFAT-GFP assay as measured by the % GFP positive cells; 2+: relative degree of positivity on the Jurkat-NFAT-GFP assay as measured by the % GFP positive cells
Conditions: relative % GFP positive cells
Procedure: (B) Induction of NFAT promoter driven GFP expression. The control vector- and SIR-expressing Jurkat-NFAT-GFP cocultured for 4-24 hours with the target antigen-expressing cell line (described above) and their ability to bind to the target antigen is assayed by measuring induction of GFP expression using Flow Cytometry. Cellular supernatant is collected and assayed for the induction of cytokines (e.g., IL2).
Jurkat NFAT-GFP Assay For Synthetic Immune Receptors. The Jurkat-NFAT-GFP cells are engineered in such a way that the IL-2 promoter, which carries NFAT binding sites, is cloned upstream of the GFP gene. These cells have been used to study signaling via TCR and CAR. The different SIRs were stably expressed in Jurkat NFAT-GFP cells by lentiviral mediated gene transfer, followed by selection with puromycin. The SIR-expressing Jurkat-NFAT-GFP cells were cocultured with the target cells at E:T ratio of approximately 1:2 for approximately 4 hours to 18 hours. When the interaction between SIRs and their target antigen results in activation of the NFAT pathway, GFP expression is induced.
Induction of GFP expression by coculturing of Jurkat-NFAT-GFP cells expressing different SIR constructs and the different target cells was studied essentially as described previously (Wu, Roybal, Puchner, Onuffer, & Lim, 2015). GFP expression was monitored by FACS analysis. A few representative examples of this assay are shown in the FIG. 13A-B. In panel A, control Jurkat-NFAT-GFP cells or those expressing SIRs targeting CD19 (clone ID 051716-I08), MPL (Clone ID: 040716-A07) and BCMA (Clone ID: 011116-A07) were incubated with RAJI (top), HEL (middle) or U266 (bottom) cells, respectively. […] In panel B, Jurkat cells expressing SIR targeting CDH6 (Clone ID: 051716-J05), CD276 (Clone ID: 050516-Q06) and Her2/neu (Clone ID: 050516-I03) were incubated with SKOV3 (top) and […] (middle and bottom) cells, respectively. […] The Jurkat-NFAT-GFP cells were engineered to express different SIRs targeting other antigens and the experiment repeated upon coculture with the target cells expressing their respective target antigen. The Jurkat-NFAT-GFP (parental) cells were used as control. The names of different SIRs, their SEQ ID NOs, component antigen binding domains and TCR chains can be determined by reference to Tables 7A-7H. A SIR is considered positive in the assay in case the SIR expressing Jurkat-NFAT-GFP cells show greater % GFP positive cells when cultured with the target cell line as compared to parental Jurkat-NFAT-GFP cells. […] The signs +/−, +, 2+ etc. after the name of the cell lines indicate the relative degree of positivity on the Jurkat-NFAT-GFP assay as measured by the % GFP positive cells after culture of the SIR expressing Jurkat-NFAT-GFP cells with that cell line. […] In addition, great diversity of response against the same target cell line is observed with Jurkat cells expressing SIRs containing different antigen binding domains targeting the same antigen (e.g., SIRs having antigen binding domains derived form different CD19 antibodies) even when the SIRs share the same TCR chains and linkers. Finally, Jurkat cells expressing SIRs targeting different antigens (e.g. CD19 vs CD20) show a diversitiy of response when exposed to the same target cell line. Thus, a diverse immune response can be generated against a single target cell by combining SIRs with different TCR chains, linkers, antigen binding domains and target specificity. Table 10A also summarizes the results of GLuc based T cell cytotoxicity assay observed with different SIRs when exposed to their target cell lines. […]

Molecule	NFAT-GFP ASSAY Positive Cell lines: RAJI (SIR-expressing Jurkat-NFAT-GFP cells cocultured with RAJI)	NFAT-GFP ASSAY Positive Cell lines: HepG2 (SIR-expressing Jurkat-NFAT-GFP cells cocultured with HepG2)
B1	RAJI(+/−)	–
B2	–	HepG2 (+/−)

Reference: US12269859B2, “Synthetic immune receptors and methods of use thereof” (Angeles Therapeutics, Inc., priority 2016, dated 2025)
